These results are taken from patent US20240189392A1 (AMBRX, published 2024).

Common to all, as to test: cell-based or functional assay
In assay [1] the target is T1, human RXFP1 (human, UniProt Q9HBX9 1-757).
T1 sequence (looked up): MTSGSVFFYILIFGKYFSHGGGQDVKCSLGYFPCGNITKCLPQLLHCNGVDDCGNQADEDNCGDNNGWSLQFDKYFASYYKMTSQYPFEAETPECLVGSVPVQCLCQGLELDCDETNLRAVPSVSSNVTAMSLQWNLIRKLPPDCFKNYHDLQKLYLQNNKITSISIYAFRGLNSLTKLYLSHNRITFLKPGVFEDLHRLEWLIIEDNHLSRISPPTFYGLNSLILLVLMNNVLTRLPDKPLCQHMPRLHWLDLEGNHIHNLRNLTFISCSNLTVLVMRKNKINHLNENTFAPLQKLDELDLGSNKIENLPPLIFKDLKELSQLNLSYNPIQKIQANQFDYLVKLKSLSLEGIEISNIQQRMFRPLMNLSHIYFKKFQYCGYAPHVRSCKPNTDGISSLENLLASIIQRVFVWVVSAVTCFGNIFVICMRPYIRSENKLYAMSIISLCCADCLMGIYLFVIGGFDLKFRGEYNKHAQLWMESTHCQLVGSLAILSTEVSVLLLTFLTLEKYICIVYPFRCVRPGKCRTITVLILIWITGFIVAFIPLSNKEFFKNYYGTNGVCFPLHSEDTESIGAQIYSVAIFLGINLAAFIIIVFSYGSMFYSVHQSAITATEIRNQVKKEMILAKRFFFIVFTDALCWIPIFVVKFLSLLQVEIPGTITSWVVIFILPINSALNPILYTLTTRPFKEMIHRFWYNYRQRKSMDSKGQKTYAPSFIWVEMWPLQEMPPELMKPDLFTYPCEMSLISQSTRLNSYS

In assay [2] the target is T1, human RXFP1. This is another data set of the same source.
Assay [3] deals with T1, human RXFP1. This is another data set of the same source.
A further assay addresses T2, human RXFP3 (human, UniProt Q9NSD7 1-469).
T2 sequence (looked up): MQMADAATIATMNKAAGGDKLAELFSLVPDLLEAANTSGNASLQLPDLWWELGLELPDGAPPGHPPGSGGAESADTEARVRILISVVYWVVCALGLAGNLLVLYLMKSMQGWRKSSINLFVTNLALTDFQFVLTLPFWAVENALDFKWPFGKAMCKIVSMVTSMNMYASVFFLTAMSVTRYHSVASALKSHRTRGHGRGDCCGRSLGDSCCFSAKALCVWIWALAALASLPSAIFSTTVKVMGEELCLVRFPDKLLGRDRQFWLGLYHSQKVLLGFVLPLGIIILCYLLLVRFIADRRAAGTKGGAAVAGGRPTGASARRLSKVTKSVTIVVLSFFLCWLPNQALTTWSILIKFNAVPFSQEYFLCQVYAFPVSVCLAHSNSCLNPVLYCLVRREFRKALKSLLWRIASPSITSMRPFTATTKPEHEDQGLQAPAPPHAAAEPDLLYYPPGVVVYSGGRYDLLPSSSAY

The next assay concerns the target T3, cynomolgus monkey RXFP1 (cynomolgus monkey, UniProt H9ERA2 1-757 (rhesus entry)).
T3 sequence: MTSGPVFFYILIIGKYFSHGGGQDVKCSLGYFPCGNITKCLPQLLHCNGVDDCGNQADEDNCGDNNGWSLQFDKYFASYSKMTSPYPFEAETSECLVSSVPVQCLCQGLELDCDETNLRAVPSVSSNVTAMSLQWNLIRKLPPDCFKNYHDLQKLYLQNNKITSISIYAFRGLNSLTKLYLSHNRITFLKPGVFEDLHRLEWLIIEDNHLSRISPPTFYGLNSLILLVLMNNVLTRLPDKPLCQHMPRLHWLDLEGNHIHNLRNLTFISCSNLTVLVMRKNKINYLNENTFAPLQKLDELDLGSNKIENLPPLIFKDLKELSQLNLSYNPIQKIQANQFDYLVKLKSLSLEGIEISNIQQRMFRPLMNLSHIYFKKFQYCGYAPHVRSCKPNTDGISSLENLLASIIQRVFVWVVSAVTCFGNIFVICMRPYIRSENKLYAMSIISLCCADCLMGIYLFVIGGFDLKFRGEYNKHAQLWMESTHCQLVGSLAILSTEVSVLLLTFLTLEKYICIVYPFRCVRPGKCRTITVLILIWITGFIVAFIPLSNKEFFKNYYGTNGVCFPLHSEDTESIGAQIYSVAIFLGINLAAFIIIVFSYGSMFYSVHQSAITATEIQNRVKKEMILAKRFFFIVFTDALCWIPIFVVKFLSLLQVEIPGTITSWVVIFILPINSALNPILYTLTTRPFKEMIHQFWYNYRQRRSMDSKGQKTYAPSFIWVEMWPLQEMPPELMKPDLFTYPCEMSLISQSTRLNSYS

A further assay has as its target dog RXFP1 (dog).

B1: RLX-A-AQ1-20KPEG (ligand)
chain 1: XLYSALANKCCHVGCTKRSLARFC
chain 2: ASWMEEVIKLCGRELVRAQIAICGMSTWS
modifications: pACF (para-acetylphenylalanine) at position 1 of the A chain, linked to a 20 kDA PEG via an oxime linkage
As for B1, the “In vitro Activity Fold Loss” value with human RXFP1 [1] amounted to 12 fold. Moreover, the “Functional Assay Raw EC50 Values [ng/mL]; cAMP increase in THP-1 cells, 11/5/2010” value with human RXFP1 [2] was determined as 38 ng/mL. Further, in the assay with human RXFP1 [3], the “Potency Ratio (RLX-A-AQ1-20KPEG/WT-RLX), cAMP assay, THP-1 cells” value was determined as 26 fold; the “Potency Ratio (RLX-A-AQ1-20KPEG/WT-RLX), cAMP assay, hRXFP1/CHO-K1 cells” value is 32 fold; the “RLX-A-AQ1-20KPEG Potency Ratio (hRXFP 1-1.0), cAMP assay” value (shortened to “RLX-A-AQ1-20KPEG Potency Ratio”) was determined as 1 ratio; the “cAMP Assay EC50 (nM), THP-1 cells” value was 7.6 nM. In the assay with human RXFP1 [3], the “cAMP Assay EC50 (nM), hRXFP1/CHO-K1 cells” value was 3.2 nM. In addition, in the assay with human RXFP3, the “cAMP Assay EC50 (nM), inhibition of forskolin-induced cAMP, human RXFP3/CHO-K1 cells” value was > 3000 nM. For the same molecule, in the assay with cynomolgus monkey RXFP1, the “Potency Ratio (RLX-A-AQ1-20KPEG/WT-RLX), cAMP assay, cyno RXFP1/CHO-K1 cells” value stood at 33 fold; the “RLX-A-AQ1-20KPEG Potency Ratio” value stood at 1.6 ratio; the “cAMP Assay EC50 (nM), cyno RXFP1/CHO-K1 cells” value was found to be 1.97 nM. In the assay with dog RXFP1, the “Potency Ratio (RLX-A-AQ1-20KPEG/WT-RLX), cAMP assay, dog RXFP1/CHO-K1 cells” value was 27 fold; the “RLX-A-AQ1-20KPEG Potency Ratio” value was 4.7 ratio; the “cAMP Assay EC50 (nM), dog RXFP1/CHO-K1 cells” value was 15 nM.
